Numbering of substitutions follows the chain as printed. One block for each binder: values may come before it.
How the values were obtained:
[1] = biological target: T1, APRIL (Acro Biosystems, Cat: APL-H52D1) (UniProt O75888 115-250, limits assumed); assay: ELISA, APRIL coated at 1 ug/mL, anti-human Fc-HRP, OD450
T1 construct: also called ARPIL
T1 sequence (looked up): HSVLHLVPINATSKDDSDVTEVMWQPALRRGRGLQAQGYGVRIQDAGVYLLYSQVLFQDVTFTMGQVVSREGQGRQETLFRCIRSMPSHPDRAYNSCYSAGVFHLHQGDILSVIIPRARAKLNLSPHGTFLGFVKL
Procedure: The capabilities of B613301, B613302, and B613303, which are fusion proteins of anifrolumab and TACI-BCMA, to bind to BAFF and APRIL were assessed by ELISA as follows: [0548] BAFF (PeproTech, Cat: 310-13) or ARPIL (Acro Biosystems, Cat: APL-H52D1) was diluted to 1 μg/mL with PBS, and a 96-well plate (Costar, Cat: 3590) was coated with the dilution overnight at 4° C. The plate was washed with PBST and blocked with Blocking Buffer (PBST containing 1% BSA) at 37° C. for 1 h. The plate was tapped. The test antibodies were diluted with Blocking Buffer. Incubation was performed at 37° C. for 1.5 h. The plate was washed with PBST. An HRP-mouse anti-human Fc antibody (GenScript, Cat: A01854-200) was diluted with Blocking Buffer. Incubation was performed at 37° C. for 40 min. The plate was washed with PBST. 100 μL of TMB substrate solution (Biopanda, Cat: TMB-S-003) was added, and color development was performed at 37° C. for 3 min. 100 μL of ELISA stop solution (Solarbio, Cat: C1058) was added. OD450 was measured.

IFNAR1 [2] = biological target: T2, IFNAR1 (human, UniProt P17181 28-557); assay: cell-based or functional assay
T2 sequence (looked up): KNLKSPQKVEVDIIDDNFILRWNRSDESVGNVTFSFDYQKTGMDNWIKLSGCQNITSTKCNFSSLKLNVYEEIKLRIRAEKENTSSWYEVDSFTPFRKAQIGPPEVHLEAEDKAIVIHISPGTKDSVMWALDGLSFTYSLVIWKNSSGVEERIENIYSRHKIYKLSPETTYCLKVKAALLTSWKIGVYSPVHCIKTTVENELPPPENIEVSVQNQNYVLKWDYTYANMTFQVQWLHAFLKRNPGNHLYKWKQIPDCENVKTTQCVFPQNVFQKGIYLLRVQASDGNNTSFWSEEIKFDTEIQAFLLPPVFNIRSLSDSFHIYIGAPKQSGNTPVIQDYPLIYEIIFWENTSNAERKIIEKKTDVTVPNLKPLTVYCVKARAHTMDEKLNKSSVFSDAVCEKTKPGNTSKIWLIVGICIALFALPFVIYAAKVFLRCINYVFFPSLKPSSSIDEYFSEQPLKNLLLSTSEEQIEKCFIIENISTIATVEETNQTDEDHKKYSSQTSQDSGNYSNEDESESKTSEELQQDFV

IFNAR1 [3] = biological target: T2, IFNAR1; assay: cell-based or functional assay; remark: listed apart in the source
[4] = biological target: T3, BAFF (Sino biological, 10056-HNCH) (UniProt Q9Y275 134-285, biotinylated in the blocking ELISA (site not stated)); assay: ELISA, BAFF coated at 1 ug/mL, anti-human IgG-HRP
T3 construct: also called BLyS
Procedure: The BAFF binding activity of the TACI-Fc fusion proteins was assessed as follows: BAFF (Sino biological, 10056-HNCH) protein was diluted with a pH 7.4 PBS (BasalMedia, B320) buffer to 1 μg/mL, and the resulting dilution was added to a 96-well microplate (Corning, 3590) at 100 μL/well. The plate was incubated overnight at 4° C. After the liquid was discarded, 5% skim milk (BD, 232100), diluted with PBS, was added at 300 μL/well for blocking, and the plate was incubated at 37° C. for 2 h. After the blocking, the blocking solution was discarded, and the plate was washed 3 times with a PBST buffer (pH 7.4 PBS containing 0.10% tween-20). Serially diluted test antibody or fusion protein solutions were added at 100 μL/well, and the plate was incubated at 37° C. for 1 h. […] The plate was incubated at 37° C. for 1 h. After the plate was washed 3 times with PBST, the chromogenic substrate TMB (KPL, 5120-0077) was added at 100 μL/well. The plate was incubated at room temperature for 10-15 min, and 1 M H₂SO₄ was added at 50 μL/well to stop the reaction. The absorbance at 450 nm was measured using a microplate reader. Curves for the binding of the antibodies to the antigen were fitted using software, and EC₅₀ values were calculated.
The BAFF binding activity of the constructed TACI-Fc fusion proteins was assessed (see Example 2 for the experimental method), and the results are shown in Table 3: […]

EC50 [1]: 0.151 nM | Emax [1]: 2.33
B1: B613303 (other)
heavy: EVQLVQSGAEVKKPGESLKISCKGSGYIFTNYWIAWVRQMPGKGLESMGIIYPGDSDIRYSPSFQGQVTISADKSITTAYLQWSSLKASDTAMYYCARHDIEGFDYWGRGTLVTVSSASTKGPSVFPLAPSSKSTSGGTAALGCLVKDYFPEPVTVSWNSGALTSGVHTFPAVLQSSGLYSLSSVVTVPSSSLGTQTYICNVNHKPSNTKVDKRVEPKSCDKTHTCPPCPAPEFEGGPSVFLFPPKPKDTLMISRTPEVTCVVVDVSHEDPEVKFNWYVDGVEVHNAKTKPREEQYNSTYRVVSVLTVLHQDWLNGKEYKCKVSNKALPASIEKTISKAKGQPREPQVYTLPPSRDELTKNQVSLTCLVKGFYPSDIAVEWESNGQPENNYKTTPPVLDSDGSFFLYSKLTVDKSRWQQGNVFSCSVMHEALHNHYTQKSLSLSPGK
light: EIVLTQSPGTLSLSPGERATLSCRASQSVSSSFFAWYQQKPGQAPRLLIYGASSRATGIPDRLSGSGSGTDFTLTITRLEPEDFAVYYCQQYDSSAITFGQGTRLEIKRTVAAPSVFIFPPSDEQLKSGTASVVCLLNNFYPREAKVQWKVDNALQSGNSQESVTEQDSKDSTYSLSSTLTLSKADYEKHKVYACEVTHQGLSSPVTKSFNRGECGGGGSGGGGSSRVDQEERFPQGLWTGVAMRSCPEEQYWDPLLGTCMSCKTICNHQSQRTCAAFCRSLSCRKEQGKFYDHLLRDCISCASICGQHPKQCAYFCENKLRSPVNLPPELMLQMAGQCSQNEYFDSLLHACIPCQLRCSSNTPPLTCQRYCNASVTNSVKGTNA
notes: Fusion protein of anifrolumab and TACI-BCMA

IC50, inhibition of IFN-alpha-induced in vitro differentiation of B cells into plasma cells (CD27+ CD38+) (IFNAR1 [2]): 12.7 nM | IC50 (nM), inhibition of the activity of type I interferons (IFN-beta, HEK-Blue IFN-alpha/beta reporter cells) (IFNAR1 [3]): 1.53 nM
B2: Anifrolumab (antibody, human IgG1, kappa, V domains shown)
VH: EVQLVQSGAEVKKPGESLKISCKGSGYIFTNYWIAWVRQMPGKGLESMGIIYPGDSDIRYSPSFQGQVTISADKSITTAYLQWSSLKASDTAMYYCARHDIEGFDYWGRGTLVTVSS
VL: EIVLTQSPGTLSLSPGERATLSCRASQSVSSSFFAWYQQKPGQAPRLLIYGASSRATGIPDRLSGSGSGTDFTLTITRLEPEDFAVYYCQQYDSSAITFGQGTRLEIKR

EC50 [4]: 0.382 nM
B3: TACI-9-1-Fc (Fc fusion)
chain: STSCRKEQGKFYDHLLRDCISCASICGQHPKQCAYFCENKLDKTHTCPPCPAPEAEGAPSVFLFPPKPKDTLMISRTPEVTCVVVDVSHEDPEVKFNWYVDGVEVHNAKTKPREEQYNSTYRVVSVLTVLHQDWLNGKEYKCKVSNKALPSSIEKTISKAKGQPREPQVYTLPPSRDELTKNQVSLTCLVKGFYPSDIAVEWESNGQPENNYKTTPPVLDSDGSFFLYSKLTVDKSRWQQGNVFSCSVMHEALHNHYTQKSLSLSPGK

EC50 [4]: 0.937 nM
B4: TACI-9-9-Fc (Fc fusion)
chain: B3 chain with T2R, D18T, Y35R

EC50 [4]: 0.122 nM
B5: TACI-9-12-Fc (Fc fusion)
chain: B3 chain with Y35A

EC50 [4]: 0.469 nM
B6: TACI-9-4-Fc (Fc fusion)
chain: B3 chain with T2L, K6Q

EC50 [4]: 0.2 nM
B7: TACI-9-8-Fc (Fc fusion)
chain: B3 chain with T2L, Y35A

EC50 [4]: 0.195 nM
B8: TACI-9-11-Fc (Fc fusion)
chain: B3 chain with T2L, R5S, K6E, K10E

EC50 [4]: 0.0869 nM
B9: TACI-9-15-Fc (Fc fusion)
chain: B3 chain with K6E, K10E, Y35A

EC50 [4]: 0.12 nM
B10: TACI-9-10-Fc (Fc fusion)
chain: B3 chain with T2L, K6E, K10E

EC50 [4]: 0.223 nM
B11: TACI-9-14-Fc (Fc fusion)
chain: B3 chain with Y35A, F36Y

EC50 [4]: 0.279 nM
B12: TACI-9-2-Fc (Fc fusion)
chain: B3 chain with T2L, R5S

EC50 [4]: 0.146 nM
B13: TACI-9-5-Fc (Fc fusion)
chain: B3 chain with T2L, K10E

EC50 [4]: 0.265 nM
B14: TACI-9-3-Fc (Fc fusion)
chain: B3 chain with T2L, K6E

EC50 [4]: 0.433 nM
B15: TACI-9-13-Fc (Fc fusion)
chain: B3 chain with F36Y

EC50 [4]: 0.727 nM
B16: TACI-9-7-Fc (Fc fusion)
chain: B3 chain with T2R, D18A

EC50 [4]: 0.367 nM
B17: TACI-9-6-Fc (Fc fusion)
chain: B3 chain with T2R, D18T

Source: patent US20260056186A1 (JIANGSU HENGRUI PHARMACEUTICALS, published 2026)
